Assays:
CSE1L (human) = CSE1L (human) (UniProt P55060); assay: co-IP, IgG control, lysate of cells with C-FLAG B3GNT2; mass spectrometry
HNRNPA2B1 (human) = HNRNPA2B1 (human) (UniProt P22626); assay: as above
LMNA (human) = LMNA (human) (UniProt P02545); assay: as above
RPL10 (human) = RPL10 (human) (UniProt P27635); assay: as above
RPS3 (human) = RPS3 (human) (UniProt P23396); assay: as above
SERBP1 (human) = target: T1, SERBP1 (human) (UniProt Q8NC51); assay: as above
T1 sequence (looked up): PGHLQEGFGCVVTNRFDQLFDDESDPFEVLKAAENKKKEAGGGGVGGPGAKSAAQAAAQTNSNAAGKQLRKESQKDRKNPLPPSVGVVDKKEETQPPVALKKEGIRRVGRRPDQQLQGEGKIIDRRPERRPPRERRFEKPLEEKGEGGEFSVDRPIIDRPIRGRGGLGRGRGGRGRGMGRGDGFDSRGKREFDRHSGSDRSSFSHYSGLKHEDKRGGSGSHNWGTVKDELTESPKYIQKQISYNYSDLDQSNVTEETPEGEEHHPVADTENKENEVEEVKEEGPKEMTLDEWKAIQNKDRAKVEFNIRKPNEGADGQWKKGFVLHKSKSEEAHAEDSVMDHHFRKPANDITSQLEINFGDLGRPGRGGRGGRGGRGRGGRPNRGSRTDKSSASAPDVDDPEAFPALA

SPTAN1 (human) = SPTAN1 (human) (UniProt Q13813); assay: as above
ACTR3 = ACTR3 (UniProt P61158); assay: co-IP with mouse IgG control, mass spectrometry; lysate of C-FLAG B3GNT2 cells
AHNAK = AHNAK (UniProt Q09666); assay: as above
ATP5F1B = ATP5F1B (UniProt P06576); assay: as above
ATXN2L = ATXN2L (UniProt Q8WWM7); assay: as above
CTSD = CTSD (UniProt P07339); assay: as above
EEF1A1 = EEF1A1 (UniProt P68104); assay: as above
FABP5 = FABP5 (UniProt Q01469); assay: as above
HBA1 = HBA1 (UniProt P69905); assay: as above
LYZ = LYZ (UniProt P61626); assay: as above
PCMT1 = PCMT1 (UniProt P22061); assay: as above
RCC2 = RCC2 (UniProt Q9P258); assay: as above
RPL11 = RPL11 (UniProt P62913); assay: as above
RPL35A = RPL35A (UniProt P18077); assay: as above
RPL36 = RPL36 (UniProt Q9Y3U8); assay: as above
RPL36A = RPL36A (UniProt P83881); assay: as above
RPS15A = RPS15A (UniProt P62244); assay: as above
RPS17 = RPS17 (UniProt P08708); assay: as above
S100A9 = S100A9 (UniProt P06702); assay: as above
SERPINB12 = SERPINB12 (UniProt Q96P63); assay: as above
SPRR2E = SPRR2E (UniProt P22531); assay: as above
SSR1 = SSR1 (UniProt P43307); assay: as above
STRAP = STRAP (UniProt Q9Y3F4); assay: as above
TPI1 = TPI1 (UniProt P60174); assay: as above
TRIM21 = TRIM21 (UniProt P19474); assay: as above
UBA52 = UBA52 (UniProt P62987); assay: as above
YBX3 = YBX3 (UniProt P16989); assay: as above

CSE1L (human), sequence (P55060 other isoform, or with tags, fused parts or gaps limits assumed): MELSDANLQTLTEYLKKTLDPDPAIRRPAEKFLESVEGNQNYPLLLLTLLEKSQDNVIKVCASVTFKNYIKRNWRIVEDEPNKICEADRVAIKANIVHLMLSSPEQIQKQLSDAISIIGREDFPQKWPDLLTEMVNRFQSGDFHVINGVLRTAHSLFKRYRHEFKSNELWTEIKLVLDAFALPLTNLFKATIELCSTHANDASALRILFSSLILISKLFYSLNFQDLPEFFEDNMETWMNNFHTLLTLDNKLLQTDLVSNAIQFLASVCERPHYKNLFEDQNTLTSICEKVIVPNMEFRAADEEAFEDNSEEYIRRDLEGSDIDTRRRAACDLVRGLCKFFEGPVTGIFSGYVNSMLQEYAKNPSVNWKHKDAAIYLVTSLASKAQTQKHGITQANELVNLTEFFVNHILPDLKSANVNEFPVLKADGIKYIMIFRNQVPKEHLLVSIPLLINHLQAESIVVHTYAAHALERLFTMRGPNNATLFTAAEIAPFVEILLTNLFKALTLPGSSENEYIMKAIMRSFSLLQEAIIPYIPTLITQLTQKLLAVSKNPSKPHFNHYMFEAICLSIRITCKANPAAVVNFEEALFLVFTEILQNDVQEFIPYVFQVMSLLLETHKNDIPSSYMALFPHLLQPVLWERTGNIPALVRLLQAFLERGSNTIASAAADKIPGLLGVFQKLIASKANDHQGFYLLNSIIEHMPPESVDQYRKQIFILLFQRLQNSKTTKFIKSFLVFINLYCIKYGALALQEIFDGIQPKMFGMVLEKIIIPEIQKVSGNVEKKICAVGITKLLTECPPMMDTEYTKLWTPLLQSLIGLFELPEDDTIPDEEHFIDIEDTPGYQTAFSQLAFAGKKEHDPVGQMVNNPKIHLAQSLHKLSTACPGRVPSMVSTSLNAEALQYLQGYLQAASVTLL
STRAP, sequence (Q9Y3F4 whole entry): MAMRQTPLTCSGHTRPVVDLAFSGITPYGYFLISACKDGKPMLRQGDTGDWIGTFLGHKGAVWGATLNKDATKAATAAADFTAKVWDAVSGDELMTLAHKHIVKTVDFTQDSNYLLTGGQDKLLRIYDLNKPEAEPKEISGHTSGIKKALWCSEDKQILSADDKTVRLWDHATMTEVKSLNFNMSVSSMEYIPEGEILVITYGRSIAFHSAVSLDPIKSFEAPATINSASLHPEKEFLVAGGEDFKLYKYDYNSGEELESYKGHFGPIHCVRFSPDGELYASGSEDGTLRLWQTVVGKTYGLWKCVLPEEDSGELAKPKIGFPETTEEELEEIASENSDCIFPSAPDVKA
TRIM21, sequence (P19474 whole entry): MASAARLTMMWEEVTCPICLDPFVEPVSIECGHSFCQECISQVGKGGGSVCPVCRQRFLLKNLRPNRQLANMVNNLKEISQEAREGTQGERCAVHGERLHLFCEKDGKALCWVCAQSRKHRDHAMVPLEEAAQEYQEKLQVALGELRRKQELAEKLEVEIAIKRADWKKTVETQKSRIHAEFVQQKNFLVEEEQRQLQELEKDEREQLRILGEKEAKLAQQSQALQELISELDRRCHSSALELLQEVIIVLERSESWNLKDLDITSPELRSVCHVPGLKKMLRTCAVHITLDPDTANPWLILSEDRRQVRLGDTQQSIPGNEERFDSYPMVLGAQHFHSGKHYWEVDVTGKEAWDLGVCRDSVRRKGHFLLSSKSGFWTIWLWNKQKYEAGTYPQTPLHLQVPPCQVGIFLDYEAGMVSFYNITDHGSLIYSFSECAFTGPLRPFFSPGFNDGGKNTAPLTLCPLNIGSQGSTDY
PCMT1, sequence (P22061 2-227 limits assumed): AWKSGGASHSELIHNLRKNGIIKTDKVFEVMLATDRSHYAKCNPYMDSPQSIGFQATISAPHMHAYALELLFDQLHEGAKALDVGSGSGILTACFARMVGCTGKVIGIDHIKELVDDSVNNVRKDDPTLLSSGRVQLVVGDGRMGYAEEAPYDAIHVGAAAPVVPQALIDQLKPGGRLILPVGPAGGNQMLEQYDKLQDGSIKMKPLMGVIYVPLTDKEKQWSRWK
CTSD, sequence (P07339 65-412 limits assumed): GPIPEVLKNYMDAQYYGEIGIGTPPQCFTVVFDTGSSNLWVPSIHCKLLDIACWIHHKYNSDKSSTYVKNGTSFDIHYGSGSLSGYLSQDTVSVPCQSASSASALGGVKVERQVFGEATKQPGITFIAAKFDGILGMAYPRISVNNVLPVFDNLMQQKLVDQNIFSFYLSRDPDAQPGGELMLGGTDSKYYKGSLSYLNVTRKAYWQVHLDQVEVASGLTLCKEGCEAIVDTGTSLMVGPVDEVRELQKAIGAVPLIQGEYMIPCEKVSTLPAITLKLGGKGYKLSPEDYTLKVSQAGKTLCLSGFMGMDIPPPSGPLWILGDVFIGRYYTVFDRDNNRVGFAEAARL
TPI1, sequence (P60174 2-249 limits assumed): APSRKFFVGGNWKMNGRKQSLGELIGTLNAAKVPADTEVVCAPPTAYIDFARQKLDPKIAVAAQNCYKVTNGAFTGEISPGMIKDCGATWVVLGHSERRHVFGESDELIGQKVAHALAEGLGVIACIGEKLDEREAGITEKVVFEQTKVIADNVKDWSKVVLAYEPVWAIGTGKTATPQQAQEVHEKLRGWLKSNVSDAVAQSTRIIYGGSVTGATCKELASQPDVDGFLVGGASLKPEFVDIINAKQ
FABP5, sequence (Q01469 2-135 limits assumed): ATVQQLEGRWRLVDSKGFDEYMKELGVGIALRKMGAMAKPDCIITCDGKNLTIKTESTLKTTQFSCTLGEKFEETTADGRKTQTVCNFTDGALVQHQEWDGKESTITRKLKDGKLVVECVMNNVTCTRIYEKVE
SERPINB12, sequence (Q96P63 other isoform, or with tags, fused parts or gaps limits assumed): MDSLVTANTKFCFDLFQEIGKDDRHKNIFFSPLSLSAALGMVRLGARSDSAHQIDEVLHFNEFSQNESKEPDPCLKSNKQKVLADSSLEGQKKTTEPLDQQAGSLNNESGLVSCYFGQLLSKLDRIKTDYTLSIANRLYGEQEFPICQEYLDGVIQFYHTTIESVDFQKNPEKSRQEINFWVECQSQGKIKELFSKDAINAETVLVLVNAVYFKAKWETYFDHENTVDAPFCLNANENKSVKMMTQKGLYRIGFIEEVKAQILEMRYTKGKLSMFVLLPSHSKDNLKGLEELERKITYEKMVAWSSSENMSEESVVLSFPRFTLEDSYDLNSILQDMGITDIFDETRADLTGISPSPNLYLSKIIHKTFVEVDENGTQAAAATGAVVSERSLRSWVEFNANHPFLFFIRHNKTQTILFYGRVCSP
HBA1, sequence (P69905 2-142 limits assumed): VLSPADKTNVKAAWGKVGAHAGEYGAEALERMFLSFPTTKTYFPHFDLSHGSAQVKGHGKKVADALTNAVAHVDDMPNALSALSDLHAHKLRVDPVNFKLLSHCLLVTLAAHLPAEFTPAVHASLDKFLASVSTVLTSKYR
S100A9, sequence (P06702 whole entry): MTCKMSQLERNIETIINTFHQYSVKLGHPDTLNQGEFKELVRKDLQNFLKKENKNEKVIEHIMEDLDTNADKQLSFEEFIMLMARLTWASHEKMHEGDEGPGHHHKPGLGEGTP
LYZ, sequence (P61626 19-148 limits assumed): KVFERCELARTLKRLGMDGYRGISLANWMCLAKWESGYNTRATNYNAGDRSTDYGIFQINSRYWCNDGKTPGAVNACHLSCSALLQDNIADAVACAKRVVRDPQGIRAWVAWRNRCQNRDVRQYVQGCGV
SSR1, sequence (P43307 19-286 limits assumed): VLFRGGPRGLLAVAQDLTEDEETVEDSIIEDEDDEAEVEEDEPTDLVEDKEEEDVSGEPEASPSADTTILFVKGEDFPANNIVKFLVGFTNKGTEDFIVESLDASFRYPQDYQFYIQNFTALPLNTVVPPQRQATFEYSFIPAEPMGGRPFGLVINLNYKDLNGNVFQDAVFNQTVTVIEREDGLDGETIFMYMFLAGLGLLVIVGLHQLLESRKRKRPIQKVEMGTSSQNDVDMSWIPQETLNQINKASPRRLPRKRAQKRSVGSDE
SPRR2E, sequence (P22531 whole entry): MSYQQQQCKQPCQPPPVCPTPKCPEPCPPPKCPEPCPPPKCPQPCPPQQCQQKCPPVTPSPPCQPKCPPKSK
RCC2, sequence (Q9P258 whole entry): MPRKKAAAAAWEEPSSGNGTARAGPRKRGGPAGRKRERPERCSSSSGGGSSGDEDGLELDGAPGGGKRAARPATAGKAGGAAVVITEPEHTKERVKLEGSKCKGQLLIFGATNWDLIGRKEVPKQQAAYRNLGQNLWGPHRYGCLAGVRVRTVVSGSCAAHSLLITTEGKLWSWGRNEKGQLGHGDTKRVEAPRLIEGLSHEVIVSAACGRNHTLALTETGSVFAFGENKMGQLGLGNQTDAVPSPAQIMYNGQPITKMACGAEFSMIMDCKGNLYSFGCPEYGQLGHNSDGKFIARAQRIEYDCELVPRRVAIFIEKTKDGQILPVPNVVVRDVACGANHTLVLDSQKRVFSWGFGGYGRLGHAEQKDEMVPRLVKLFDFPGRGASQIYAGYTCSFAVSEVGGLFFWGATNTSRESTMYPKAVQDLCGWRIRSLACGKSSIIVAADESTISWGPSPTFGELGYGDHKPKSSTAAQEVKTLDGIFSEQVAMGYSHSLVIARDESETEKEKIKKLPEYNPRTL
ATP5F1B, sequence (P06576 48-529 limits assumed): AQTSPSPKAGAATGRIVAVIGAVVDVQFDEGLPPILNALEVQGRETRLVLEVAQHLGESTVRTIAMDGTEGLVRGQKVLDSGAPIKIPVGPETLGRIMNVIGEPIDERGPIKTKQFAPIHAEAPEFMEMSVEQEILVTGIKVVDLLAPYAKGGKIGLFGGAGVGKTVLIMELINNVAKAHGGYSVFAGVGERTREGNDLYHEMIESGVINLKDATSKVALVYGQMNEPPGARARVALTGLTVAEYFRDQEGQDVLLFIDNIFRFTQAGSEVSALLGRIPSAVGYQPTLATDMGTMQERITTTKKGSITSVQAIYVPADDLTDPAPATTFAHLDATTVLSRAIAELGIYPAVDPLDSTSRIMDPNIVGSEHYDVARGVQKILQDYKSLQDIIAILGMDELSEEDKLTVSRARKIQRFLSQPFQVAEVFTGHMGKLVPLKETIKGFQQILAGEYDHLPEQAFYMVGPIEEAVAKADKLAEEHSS

With “IgG control (Millipore Sigma 12-371) (antibody)” the co-IP mass spectrometry count (CSE1L (human)) was 0, the co-IP mass spectrometry count (HNRNPA2B1 (human)) was 9 and the co-IP mass spectrometry count (LMNA (human)) was 18. It also gave a co-IP mass spectrometry count (RPL10 (human)) of 3, a co-IP mass spectrometry count (RPS3 (human)) of 17 and a co-IP mass spectrometry count (SERBP1 (human)) of 5. It also gave a co-IP mass spectrometry count (SPTAN1 (human)) of 0, a co-IP mass spectrometry count (ACTR3) of 2 and a co-IP mass spectrometry count (AHNAK) of 2. The co-IP mass spectrometry count (ATP5F1B) was 0, the co-IP mass spectrometry count (ATXN2L) was 2 and the co-IP mass spectrometry count (CTSD) was 0. For the same substance, the co-IP mass spectrometry count (EEF1A1) was 5, the co-IP mass spectrometry count (FABP5) was 0 and the co-IP mass spectrometry count (HBA1) was 0. It also gave a co-IP mass spectrometry count (LYZ) of 0, a co-IP mass spectrometry count (PCMT1) of 0 and a co-IP mass spectrometry count (RCC2) of 0. The co-IP mass spectrometry count (RPL11) was 3, the co-IP mass spectrometry count (RPL35A) was 0 and the co-IP mass spectrometry count (RPL36) was 0. It also gave a co-IP mass spectrometry count (RPL36A) of 0, a co-IP mass spectrometry count (RPS15A) of 2 and a co-IP mass spectrometry count (RPS17) of 5. For the same substance, the co-IP mass spectrometry count (S100A9) was 5, the co-IP mass spectrometry count (SERPINB12) was 0 and the co-IP mass spectrometry count (SPRR2E) was 5. For the same substance, the co-IP mass spectrometry count (SSR1) was 0, the co-IP mass spectrometry count (STRAP) was 0 and the co-IP mass spectrometry count (TPI1) was 0. It also gave a co-IP mass spectrometry count (TRIM21) of 0, a co-IP mass spectrometry count (UBA52) of 7 and a co-IP mass spectrometry count (YBX3) of 0.

— patent US20240261333A1, “NOVEL TARGETS FOR ENHANCING ANTI-TUMOR IMMUNITY” (THE BROAD INSTITUTE, INC., priority 2021, published 2024)
